Literature values as cited in patent US12377133B2 (Ascendis Pharma Growth Disorders A/S, priority 2019, dated 2025).
Bridges are numbered along the chain shown (N, C = ends). Where no end group is shown, it is not given here.

Details: Lorget et al. 2012

BMN111: recombinant CNP-39: 37 C-terminal amino acids of human CNP-53 plus glycine and proline added at the N-terminus (PGQEHPNARKYKGANKKGLSKGCFGLKLDRIGSMSGLGC; disulfide 23-39; chains of the INN, looked up)
half-life: 20 min
